B1: MKK6 D-site peptide / p38-alpha (MAPK14) L195A, full length (parent complex)
chain 1: SQSKGKKRNPGLKIPKEAFEQP
chain 2: MSQERPTFYRQELNKTVWEVPERYQNLSPVGSGAYGSVCAAFDTKTGHRVAVKKLSRPFQSIIHAKRTYRELRLLKHMKHENVIGLLDVFTPARSLEEFNDVYLVTHLMGADLNNIVKCQKLTDDHVQFLIYQILRGLKYIHSADIIHRDLKPSNLAVNEDCELKILDFGLARHTDDEMTGYVATRWYRAPEIMANWMHYNQTVDIWSVGCIMAELLTGRTLFPGTDHIDQLKLILRLVGTPGAELLKKISSESARNYIQSLAQMPKMNFANVFIGANPLAVDLLEKMLVLDSDKRITAAQALAHAYFAQYHDPDDEPVAEPYDQSFESRDFLIDEWKSLTYDEVISFVPPPLDQEEMES

These results are taken from publication doi:10.1101/2021.08.20.457142.

In the experiment the parent is B1.
chain 1 K4H: the screen value was 0.888 Z-score of the enrichment rate within one screen of 711 sequences.

On to chain 1 K4Q, for which the screen value was 1.02 Z-score of the enrichment rate within one screen of 711 sequences.

In the case of chain 1 K4D, the screen value is -0.172 Z-score of the enrichment rate within one screen of 711 sequences.

With chain 1 K4F, the screen value is 1.08 Z-score of the enrichment rate within one screen of 711 sequences.

As to chain 1 K4G, the screen value is 0.543 Z-score of the enrichment rate within one screen of 711 sequences.

As to chain 1 K4I, the screen value was 0.786 Z-score of the enrichment rate within one screen of 711 sequences.

For chain 1 K4Y, the screen value is 0.747 Z-score of the enrichment rate within one screen of 711 sequences.

Regarding chain 1 K4V, the screen value is 0.981 Z-score of the enrichment rate within one screen of 711 sequences.

With chain 1 K4P, the screen value is -0.0666 Z-score of the enrichment rate within one screen of 711 sequences.

On to chain 1 K4C, for which the screen value is 0.526 Z-score of the enrichment rate within one screen of 711 sequences.

For the variant chain 1 K6A, chain 1 L12A, the screen value was -0.715 Z-score of the enrichment rate within one screen of 711 sequences.

Take chain 1 K13A, chain 1 K16A: the screen value is -0.809 Z-score of the enrichment rate within one screen of 711 sequences.

In the case of chain 1 I14W, the screen value is -0.82 Z-score of the enrichment rate within one screen of 711 sequences.

On to chain 1 I14N, for which the screen value is -0.906 Z-score of the enrichment rate within one screen of 711 sequences.

For chain 1 I14T, the screen value is -1.3 Z-score of the enrichment rate within one screen of 711 sequences.

On to chain 1 I14G, for which the screen value was -1.29 Z-score of the enrichment rate within one screen of 711 sequences.

For chain 1 I14P, the screen value is -0.823 Z-score of the enrichment rate within one screen of 711 sequences.

With chain 1 I14S, the screen value is -1.38 Z-score of the enrichment rate within one screen of 711 sequences.

Regarding chain 1 R8A, chain 1 L12A, the screen value was -0.76 Z-score of the enrichment rate within one screen of 711 sequences.

For the variant chain 1 K7A, chain 1 P10A, the screen value is -0.226 Z-score of the enrichment rate within one screen of 711 sequences.

With chain 1 P15G, the screen value was 0.848 Z-score of the enrichment rate within one screen of 711 sequences.

On to chain 1 P15Y, for which the screen value was 0.93 Z-score of the enrichment rate within one screen of 711 sequences.

With chain 1 P15K, the screen value is 1.65 Z-score of the enrichment rate within one screen of 711 sequences.

Turning to chain 1 P15E, the screen value is 0.418 Z-score of the enrichment rate within one screen of 711 sequences.

chain 1 P15R: the screen value is 1.68 Z-score of the enrichment rate within one screen of 711 sequences.

For chain 1 P15T, the screen value is 1.24 Z-score of the enrichment rate within one screen of 711 sequences.

Regarding chain 1 K6A, chain 1 I14A, the screen value was -1.08 Z-score of the enrichment rate within one screen of 711 sequences.

On to chain 1 S3P, for which the screen value is 1.6 Z-score of the enrichment rate within one screen of 711 sequences.

As for chain 1 S3D, the screen value is 0.932 Z-score of the enrichment rate within one screen of 711 sequences.

chain 1 S3N: the screen value is 1.29 Z-score of the enrichment rate within one screen of 711 sequences.

As to chain 1 S3C, the screen value is 1.84 Z-score of the enrichment rate within one screen of 711 sequences.

With chain 1 S3A, chain 1 K13A, the screen value was -0.319 Z-score of the enrichment rate within one screen of 711 sequences.

On to chain 1 G11A, chain 1 K16A, for which the screen value was 0.278 Z-score of the enrichment rate within one screen of 711 sequences.

Consider chain 1 K13G, for which the screen value is -1.05 Z-score of the enrichment rate within one screen of 711 sequences.

For the variant chain 1 K13I, the screen value is 0.477 Z-score of the enrichment rate within one screen of 711 sequences.

In the case of chain 1 K13V, the screen value is 0.144 Z-score of the enrichment rate within one screen of 711 sequences.

For the variant chain 1 K13A, the screen value was -0.412 Z-score of the enrichment rate within one screen of 711 sequences.

Consider chain 1 K13N, for which the screen value was -0.0907 Z-score of the enrichment rate within one screen of 711 sequences.

Consider chain 1 K13F, for which the screen value is 0.119 Z-score of the enrichment rate within one screen of 711 sequences.

As for chain 1 K13D, the screen value is -0.943 Z-score of the enrichment rate within one screen of 711 sequences.

chain 1 K13S: the screen value was -0.0532 Z-score of the enrichment rate within one screen of 711 sequences.

As for chain 1 K13L, the screen value was -0.274 Z-score of the enrichment rate within one screen of 711 sequences.

In the case of chain 1 N9A, chain 1 P10A, the screen value is 0.315 Z-score of the enrichment rate within one screen of 711 sequences.

Regarding chain 1 L12A, chain 1 K16A, the screen value is -0.931 Z-score of the enrichment rate within one screen of 711 sequences.

For chain 1 K16I, the screen value is 1.8 Z-score of the enrichment rate within one screen of 711 sequences.

As for chain 1 K16D, the screen value is -0.827 Z-score of the enrichment rate within one screen of 711 sequences.

For the variant chain 1 K16A, the screen value is 0.957 Z-score of the enrichment rate within one screen of 711 sequences.

chain 1 K16T: the screen value is 0.151 Z-score of the enrichment rate within one screen of 711 sequences.

Turning to chain 1 K16Q, the screen value is 0.247 Z-score of the enrichment rate within one screen of 711 sequences.

chain 1 G11S: the screen value is 0.683 Z-score of the enrichment rate within one screen of 711 sequences.

As for chain 1 G11A, the screen value is 1.13 Z-score of the enrichment rate within one screen of 711 sequences.

With chain 1 G11Y, the screen value is 1.26 Z-score of the enrichment rate within one screen of 711 sequences.

In the case of chain 1 G11M, the screen value was 1.24 Z-score of the enrichment rate within one screen of 711 sequences.

Consider chain 1 G11R, for which the screen value is 1.68 Z-score of the enrichment rate within one screen of 711 sequences.

For the variant chain 1 G11F, the screen value was 1.14 Z-score of the enrichment rate within one screen of 711 sequences.

Regarding chain 1 K13A, chain 1 I14A, the screen value was -0.745 Z-score of the enrichment rate within one screen of 711 sequences.

Consider chain 1 R8E, for which the screen value was -0.5 Z-score of the enrichment rate within one screen of 711 sequences.

Consider chain 1 R8S, for which the screen value was 0.135 Z-score of the enrichment rate within one screen of 711 sequences.

As for chain 1 R8N, the screen value was 0.126 Z-score of the enrichment rate within one screen of 711 sequences.

As to chain 1 R8Y, the screen value is 0.157 Z-score of the enrichment rate within one screen of 711 sequences.

For chain 1 R8L, the screen value is 0.23 Z-score of the enrichment rate within one screen of 711 sequences.

For the variant chain 1 K6A, chain 1 K13A, the screen value is -0.984 Z-score of the enrichment rate within one screen of 711 sequences.

In the case of chain 1 R8A, chain 1 I14A, the screen value was -0.878 Z-score of the enrichment rate within one screen of 711 sequences.

As to chain 1 I14A, chain 1 P15A, the screen value was -1.12 Z-score of the enrichment rate within one screen of 711 sequences.

Regarding chain 1 S3A, chain 1 P15A, the screen value is 2.7 Z-score of the enrichment rate within one screen of 711 sequences.

As for chain 1 G5W, the screen value is 4.45 Z-score of the enrichment rate within one screen of 711 sequences.

For chain 1 G5M, the screen value was 2.63 Z-score of the enrichment rate within one screen of 711 sequences.

chain 1 G5T: the screen value was 1.67 Z-score of the enrichment rate within one screen of 711 sequences.

With chain 1 G5S, the screen value is 1.65 Z-score of the enrichment rate within one screen of 711 sequences.

In the case of chain 1 G5K, the screen value was 2.33 Z-score of the enrichment rate within one screen of 711 sequences.

Consider chain 1 G5N, for which the screen value was 1.64 Z-score of the enrichment rate within one screen of 711 sequences.

In the case of chain 1 G5F, the screen value is 3.61 Z-score of the enrichment rate within one screen of 711 sequences.

For the variant chain 1 N9A, chain 1 K13A, the screen value is -0.689 Z-score of the enrichment rate within one screen of 711 sequences.

Turning to chain 1 R8A, chain 1 G11A, the screen value was -0.109 Z-score of the enrichment rate within one screen of 711 sequences.

As to chain 1 K7S, the screen value was 0.9 Z-score of the enrichment rate within one screen of 711 sequences.
